# The DeepSol protein solubility set
# Test: soluble on expression in E. coli; label from the status in PepcDB or PDB records
row,Sequence,soluble on expression in E. coli
1,MELKILVTGGNVFVPGRLNAHFSTVVYLEHKDRRIIIDPGNLSSMDELEEKFSELGISPDDITDVLFTHVHLDHIFNSVLFENATFYVHEVYKTKNYLSFGTIVGRIYSKVISSWKNVVLLKGEESLFDEKVKVFHTPWHAREHLSFLLDTENAGRVLITGDITPNRLSYYDIIKGYGSVQVKNFLDRVGRIDLLVFPHDAPLKPEVKK,not soluble
2,GHHHHHHAIAENLYFQSAQYKGAASEAGRAMHLMKKREKQREQMEQMKQRIAEENIMKSNIDKKFSAHYDAVEAELKSSTVGLVTLNDMKAKQEALVKEREKQLAKKEQSKELQMKLEKLREKERKKEAKRKISSLSFTLEEEEEGGEEEEEAAMYEEEMEREEITTKKRKLGKNPDVDTSFLPDRDREEEENRLREELRQEWEAKQEKIKSEEIEITFSYWDGSGHRRTVKMRKGNTMQQFLQKALEILRKDFSELRSAGVEQLMYIKEDLIIPHHHSFYDFIVTKARGKSGPLFNFDVHDDVRLLSDATVEKDESHAGKVVLRSWYEKNKHIFPASRWEPYDPEKKWDKYTIR,not soluble
3,SSSISELYDVTWEEMRDKLRKWREENYRNSEQIVDVGEELINEHASKLGDDIWIIYEQVMIAALDCSRDDLAWSCLQELKRQFPDSHRVKRLAGMRLEALERYDDANKLYDSILQDDPTNTAARKRKICILRAQGKSSEAIRELNEYLEQFVGDQEAWHELSELYINEHDYAKAAFCLEELMMTNPHNHLYCEQYAEVKYTQGGLENLELARKYFAQALKLNNRNMRALFGLYMSASHIAASPKVSAKVKKDNVKYAAWAAAQISRAYQMAGRGKKENKCSVKAVEEMLESLQITMS,soluble
4,MSLHTSHVIPAPRIDVWEWHTRPGAVFRLTPPFLPLRPLEQATSLAKGTTVFALPAGLRWEARHDLSGYIQHHRFTDVCINAPVKSLASWRHIHDFTDHPSGTLITDTVHTRAPRTTLSPAFAYRQHQLINDIQAQQRFYELTRSNPTESTPLTIGLTGSRGLVGRALTAQLTTLGHTVVQLVRGESKPHQRHWDPAHPAPNLLEGLDALIHLAGEPILGRFNDAHKADIRDSRIEPTRQLSQLVQKSSTCRTMVSASAIGYYGHARGDEILDEGSTQGDDFLASVCEEWEAASRTDATSNKRIVNIRTGVVMSGRGGMLPVLKAVFSVGLGGPFRGSNPWMSWIAIDDLCDIYIRAVLDPKLSGAINAVAPNPIKNQDFVDALAKELKRPAKMTISSLGPAILLGQQGAKELALADQRVQPRVLNNLDHHFRYVDIRSCLAHELGGENLLDI,not soluble
5,MSLSFSTLMDKRERGSFDSQFLIAMPGLDDGNFARSVIYICAHSDAGAMGFIINRPQQITFTDILLHLKLVDSNDAIMLPNRTREFPIQCGGPVESGRGFVLHSDDYLSESSIPVSDDISLTATLDIVRAISNGRGPQKATMMLGYAGWGPGQLENEIANNGWLNCPAAEELIFDRGLDNKYERALALMGVDARMLSTDAGHAEGHHHHHH,not soluble
6,MIIYVSACRHAVCSETVLDVLGNVSEKMKKGIELARSVAHLELCQDKITFQRRYVAIEFDEDELLDGKSSILAVAVSIYFAIVGLRVPSDLMITGSLNLKGTVIPISGLDKTVKVIKLRITLSGSSSA,not soluble
7,MGSDKIHHHHHHALSPETGSTSVAVMGRQLYEEMRLDQWVCFDAFMQGLRGSEKIDRKNKDILTLIDFSKPSTAERMVVLDIRQKRILYTSLVSHGKNSGGNYATSFSNENGSHKSSLGFYLTENTYQGRNGYSLILNGLEKGINDLAKQRAIVIHGASYSDPSVAASSGRLGRSFGCPALPVSVSKPIINTIKNGTLLFIYANDKNYLTQSSILSTQQENDIFHEKSYRKVL,not soluble
8,MAHHHHHHMLRRSVVNLQNPARVFRSAAKRQKLDEAVRVDQAGEVAAVRICKYQLLWMSPLDSGVPVVKEILRDELVHEEVMGHLARKHSVRLTLLDPLFHVGAFVMGSCTALLGKDAVMCCHAAVEVTIAQHYNDQLRELQSLEESEGASKGKDEKDWAEVMEYVARFRDEELHHQELGEQNGAENAPAYPLLYNGIRIMCSLGVALAKRI,not soluble
9,MNMNQTTSPALSQVETAIRVPAGNFAKYNYYSVFDIVRQTRKQFINANMSWPGSRGGKTWDLAMGQAQYIRCMFRENQLTRRVRGTLQQTPDNGTNLSSSAVGGIQGQAERRPDLATLMVVNDAINQQIPTLLPYHFPHDQVELSLLNTDVSLEDIISESSIDWPWFLSNSLTGDNSNYAMELASRLSPEQQTLPTEPDNSTATDLTSFYQTNLGLKTADYTPFEALNTFARQLAITVPPGGTVDCGYSACQPAVLEHHHHHH,not soluble
